Laboratory results published in the supplement of paper PMC10567573.

B1: SCNN1D (parent)
chain: IRVMVHGRNHTPFLGHHSFSVRPG
B2: CSNK1G1 (parent)
chain: GSLPWQGLKADTLKERYQKIGDTK

Variants of: B1
Test: protein stability index of a GFP-peptide fusion (GPS, HEK-293T) (PSI 1-6); higher = more stable
Settings: c terminus: a fixed tail appended
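Further: lentivirally expressed fusions sorted by FACS into six bins by GFP to DsRed ratio, PSI derived from sequencing read proportions per bin multiplied by bin number.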

Q: For IRVMVHGRNHTPFLGHHSFSVSPG [R22S], which protein stability index is on record?
A: 2.31

Q: Which protein stability index does the source give for IRVMVHGRNHTPFLGHHSFSVFPG [R22F] here?
A: 2.77

Q: Which protein stability index does the source give for IRVMVHGRNHTPFLGHHSFSVWPG [R22W] here?
A: 3.39

Q: Which protein stability index does the source give for IRVMVHGRNHTPFLGHHSFSVGPG [R22G] here?
A: 1.39

Q: Which protein stability index does the source give for IRVMVHGRNHTPFLGHHSFSVPPG [R22P] here?
A: 1.68

Q: For IRVMVHGRNHTPFLGHHSFSVMPG [R22M], which protein stability index is on record?
A: 3.3

Q: For IRVMVHGRNHTPFLGHHSFSVDPG [R22D], which protein stability index is on record?
A: 2.85

Q: For IRVMVHGRNHTPFLGHHSFSVRSG [P23S], which protein stability index is on record?
A: 2.45

Q: For IRVMVHGRNHTPFLGHHSFSVRKG [P23K], which protein stability index is on record?
A: 1.44

Q: Which protein stability index does the source give for IRVMVHGRNHTPFLGHHSFSVRNG [P23N] here?
A: 2.25

Q: For IRVMVHGRNHTPFLGHHSFSVRAG [P23A], which protein stability index is on record?
A: 1.32

Q: Which protein stability index does the source give for IRVMVHGRNHTPFLGHHSFSVRQG [P23Q] here?
A: 1.64

Q: Which protein stability index does the source give for IRVMVHGRNHTPFLGHHSFSVRTG [P23T] here?
A: 1.8

Q: For IRVMVHGRNHTPFLGHHSFSVRWG [P23W], which protein stability index is on record?
A: 1.89

Q: With IRVMVHGRNHTPFLGHHSFSVRPI [G24I] as the variant, how does the protein stability index read?
A: 2.44

Q: For IRVMVHGRNHTPFLGHHSFSVRPD [G24D], which protein stability index is on record?
A: 2.04

Q: Which protein stability index does the source give for IRVMVHGRNHTPFLGHHSFSVRPR [G24R] here?
A: 1.19

Q: Which protein stability index does the source give for IRVMVHGRNHTPFLGHHSFSVRPN [G24N] here?
A: 1.56

Q: For IRVMVHGRNHTPFLGHHSFSVRPK [G24K], which protein stability index is on record?
A: 1.16

Q: Which protein stability index does the source give for IRVMVHGRNHTPFLGHHSFSVRPH [G24H] here?
A: 1.84

Variants of: B2
Test: as above
Settings: c terminus: a fixed tail appended

Q: Which protein stability index does the source give for GNLPWQGLKADTLKERYQKIGDTK [S2N] here?
A: 4.11

Q: Which protein stability index does the source give for GLLPWQGLKADTLKERYQKIGDTK [S2L] here?
A: 4.17

Q: Which protein stability index does the source give for GILPWQGLKADTLKERYQKIGDTK [S2I] here?
A: 3.47

Q: With GELPWQGLKADTLKERYQKIGDTK [S2E] as the variant, how does the protein stability index read?
A: 4.6

Q: With GALPWQGLKADTLKERYQKIGDTK [S2A] as the variant, how does the protein stability index read?
A: 4.14

Q: With GDLPWQGLKADTLKERYQKIGDTK [S2D] as the variant, how does the protein stability index read?
A: 4.53

Q: With GGLPWQGLKADTLKERYQKIGDTK [S2G] as the variant, how does the protein stability index read?
A: 3.69

Q: For GFLPWQGLKADTLKERYQKIGDTK [S2F], which protein stability index is on record?
A: 3.73

Q: Which protein stability index does the source give for GWLPWQGLKADTLKERYQKIGDTK [S2W] here?
A: 3.04

Q: Which protein stability index does the source give for GRLPWQGLKADTLKERYQKIGDTK [S2R] here?
A: 3.83

Q: With GYLPWQGLKADTLKERYQKIGDTK [S2Y] as the variant, how does the protein stability index read?
A: 4.01

Q: Which protein stability index does the source give for GHLPWQGLKADTLKERYQKIGDTK [S2H] here?
A: 3.16

Q: For GVLPWQGLKADTLKERYQKIGDTK [S2V], which protein stability index is on record?
A: 3.35

Q: Which protein stability index does the source give for GTLPWQGLKADTLKERYQKIGDTK [S2T] here?
A: 4.21

Q: Which protein stability index does the source give for GCLPWQGLKADTLKERYQKIGDTK [S2C] here?
A: 3.22

Q: For GKLPWQGLKADTLKERYQKIGDTK [S2K], which protein stability index is on record?
A: 4.37

Q: With GPLPWQGLKADTLKERYQKIGDTK [S2P] as the variant, how does the protein stability index read?
A: 3.95

Q: With GMLPWQGLKADTLKERYQKIGDTK [S2M] as the variant, how does the protein stability index read?
A: 4.07

Q: Which protein stability index does the source give for GQLPWQGLKADTLKERYQKIGDTK [S2Q] here?
A: 4.57

Q: For GSLPWQGFKADTLKERYQKIGDTK [L8F], which protein stability index is on record?
A: 3.54

Q: With GSLPWQGNKADTLKERYQKIGDTK [L8N] as the variant, how does the protein stability index read?
A: 4.58

Q: For GSLPWQGYKADTLKERYQKIGDTK [L8Y], which protein stability index is on record?
A: 3.63

Q: Which protein stability index does the source give for GSLPWQGAKADTLKERYQKIGDTK [L8A] here?
A: 3.73

Q: Which protein stability index does the source give for GSLPWQGWKADTLKERYQKIGDTK [L8W] here?
A: 3.69

Q: Which protein stability index does the source give for GSLPWQGMKADTLKERYQKIGDTK [L8M] here?
A: 4.35

Q: Which protein stability index does the source give for GSLPWQGQKADTLKERYQKIGDTK [L8Q] here?
A: 4.24

Q: Which protein stability index does the source give for GSLPWQGKKADTLKERYQKIGDTK [L8K] here?
A: 4.17

Q: Which protein stability index does the source give for GSLPWQGDKADTLKERYQKIGDTK [L8D] here?
A: 4.75

Q: With GSLPWQGRKADTLKERYQKIGDTK [L8R] as the variant, how does the protein stability index read?
A: 4.32

Q: With GSLPWQGHKADTLKERYQKIGDTK [L8H] as the variant, how does the protein stability index read?
A: 4.36

Q: Which protein stability index does the source give for GSLPWQGTKADTLKERYQKIGDTK [L8T] here?
A: 4.9

Q: With GSLPWQGVKADTLKERYQKIGDTK [L8V] as the variant, how does the protein stability index read?
A: 4.66

Q: Which protein stability index does the source give for GSLPWQGPKADTLKERYQKIGDTK [L8P] here?
A: 4.43

Q: For GSLPWQGGKADTLKERYQKIGDTK [L8G], which protein stability index is on record?
A: 4.76

Q: With GSLPWQGCKADTLKERYQKIGDTK [L8C] as the variant, how does the protein stability index read?
A: 3.35

Q: With GSLPWQGSKADTLKERYQKIGDTK [L8S] as the variant, how does the protein stability index read?
A: 4.64

Q: With GSLPWQGIKADTLKERYQKIGDTK [L8I] as the variant, how does the protein stability index read?
A: 4.13

Q: For GSLPWQGEKADTLKERYQKIGDTK [L8E], which protein stability index is on record?
A: 4.44

Q: With GSTPWQGLKADTLKERYQKIGDTK [L3T] as the variant, how does the protein stability index read?
A: 4.09

Q: For GSHPWQGLKADTLKERYQKIGDTK [L3H], which protein stability index is on record?
A: 4.58

Q: Which protein stability index does the source give for GSFPWQGLKADTLKERYQKIGDTK [L3F] here?
A: 3.71

Q: Which protein stability index does the source give for GSRPWQGLKADTLKERYQKIGDTK [L3R] here?
A: 3.81

Q: Which protein stability index does the source give for GSMPWQGLKADTLKERYQKIGDTK [L3M] here?
A: 4.54

Q: Which protein stability index does the source give for GSDPWQGLKADTLKERYQKIGDTK [L3D] here?
A: 4.2

Q: For GSCPWQGLKADTLKERYQKIGDTK [L3C], which protein stability index is on record?
A: 4.31

Q: For GSWPWQGLKADTLKERYQKIGDTK [L3W], which protein stability index is on record?
A: 3.41

Q: Which protein stability index does the source give for GSYPWQGLKADTLKERYQKIGDTK [L3Y] here?
A: 4.09

Q: Which protein stability index does the source give for GSAPWQGLKADTLKERYQKIGDTK [L3A] here?
A: 4.38

Q: For GSGPWQGLKADTLKERYQKIGDTK [L3G], which protein stability index is on record?
A: 4.42

Q: For GSQPWQGLKADTLKERYQKIGDTK [L3Q], which protein stability index is on record?
A: 4.63

Q: With GSVPWQGLKADTLKERYQKIGDTK [L3V] as the variant, how does the protein stability index read?
A: 4.37

Q: With GSIPWQGLKADTLKERYQKIGDTK [L3I] as the variant, how does the protein stability index read?
A: 4.55

Q: Which protein stability index does the source give for GSSPWQGLKADTLKERYQKIGDTK [L3S] here?
A: 4.2

Q: With GSPPWQGLKADTLKERYQKIGDTK [L3P] as the variant, how does the protein stability index read?
A: 3.88

Q: With GSEPWQGLKADTLKERYQKIGDTK [L3E] as the variant, how does the protein stability index read?
A: 4.18

Q: With GSKPWQGLKADTLKERYQKIGDTK [L3K] as the variant, how does the protein stability index read?
A: 4.12

Q: With GSNPWQGLKADTLKERYQKIGDTK [L3N] as the variant, how does the protein stability index read?
A: 4.09

Q: With GSLPDQGLKADTLKERYQKIGDTK [W5D] as the variant, how does the protein stability index read?
A: 5.18

Q: Which protein stability index does the source give for GSLPKQGLKADTLKERYQKIGDTK [W5K] here?
A: 4.74

Q: For GSLPPQGLKADTLKERYQKIGDTK [W5P], which protein stability index is on record?
A: 4.62

Q: With GSLPEQGLKADTLKERYQKIGDTK [W5E] as the variant, how does the protein stability index read?
A: 5.42

Q: For GSLPYQGLKADTLKERYQKIGDTK [W5Y], which protein stability index is on record?
A: 4.43

Q: For GSLPMQGLKADTLKERYQKIGDTK [W5M], which protein stability index is on record?
A: 4.61

Q: For GSLPSQGLKADTLKERYQKIGDTK [W5S], which protein stability index is on record?
A: 4.99

Q: For GSLPRQGLKADTLKERYQKIGDTK [W5R], which protein stability index is on record?
A: 4.29

Q: Which protein stability index does the source give for GSLPTQGLKADTLKERYQKIGDTK [W5T] here?
A: 5.09

Q: For GSLPFQGLKADTLKERYQKIGDTK [W5F], which protein stability index is on record?
A: 4.75

Q: Which protein stability index does the source give for GSLPIQGLKADTLKERYQKIGDTK [W5I] here?
A: 3.99

Q: With GSLPVQGLKADTLKERYQKIGDTK [W5V] as the variant, how does the protein stability index read?
A: 4.58

Q: Which protein stability index does the source give for GSLPQQGLKADTLKERYQKIGDTK [W5Q] here?
A: 4.38

Q: Which protein stability index does the source give for GSLPCQGLKADTLKERYQKIGDTK [W5C] here?
A: 4.7

Q: Which protein stability index does the source give for GSLPHQGLKADTLKERYQKIGDTK [W5H] here?
A: 4.53

Q: For GSLPNQGLKADTLKERYQKIGDTK [W5N], which protein stability index is on record?
A: 4.97

Q: With GSLPAQGLKADTLKERYQKIGDTK [W5A] as the variant, how does the protein stability index read?
A: 4.98
